The record followed here is patent US20190338002A1 (Pieris, published 2019).

Test [1] deals with T1, human alpha CGRP (SEQ ID NO: 80) (human, not fully specified).
T1 construct: also called human αCGRP; hαCGRP
T1 peptide: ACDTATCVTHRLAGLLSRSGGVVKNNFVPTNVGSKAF
As to the kind of experiment: SPR as in Example 5. The method, then: (§1) The Biotin CAPture Kit (GE Healthcare) was used to immobilize biotinylated lipocalin muteins to a chip surface. Muteins were biotinylated using standard NHS chemistry. Undiluted Biotin CAPture Reagent (streptavidin conjugated with ss-DNA oligo) was captured on a Sensor Chip CAP with the pre-immobilized complementary ss-DNA oligo. Thereafter, biotinylated muteins at 1 μg/mL were applied for 300 s at a flow rate of 5 μL/min.
(§2) CGRP species were applied in three concentrations of 30 nM, 3 nM and 0.3 nM at a flow rate of 30 μL/min or in a single concentration of 25 nM per cycle as shown in FIG. 2. The dilutions were injected with association times of 180 s and dissociation times of 5400 sec to obtain ka and kd information. Regeneration of the chip surface was achieved by injecting 6 M Guanidinium-HCl+0.25 M NaOH (120 s) with a flow rate of 10 μL/min. Injection of regeneration solutions was followed by an extra wash step with HBS-EP+(1×; BR-1006-69; GE Healthcare) running buffer and a stabilization period of 120 s.

Test [2] deals with T2, human beta CGRP (SEQ ID NO: 81) (human, not fully specified).
T2 construct: also called human βCGRP; hβCGRP
T2 peptide: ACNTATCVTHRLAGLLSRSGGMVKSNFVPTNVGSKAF
The test can be described thus: SPR as in Example 5. The method, then:
as §1, §2

Test [3] addresses T1, human alpha CGRP (SEQ ID NO: 80). The test can be described thus: cell-based or functional assay.
The target of test [4] is T2, human beta CGRP (SEQ ID NO: 81). The test can be described thus: cell-based or functional assay.
The target in test [5] is T1, human alpha CGRP (SEQ ID NO: 80). As to the kind of experiment: SPR, 37 C, mutein captured, CGRP analyte. The method, then:
as §1, §2
(§3) The data were double-referenced by subtraction of the corresponding signals measured for the control channel (loaded with Biotin CAPture reagent only) and by subtraction of buffer injections from the binding responses. Association rate constant ka and dissociation rate constant kd for the binding reaction were determined using Biacore T200 Evaluation Software V2.0 for data processing and kinetic fitting. The data were globally fit with 1:1 binding model.

Test [6] has as its target T2, human beta CGRP (SEQ ID NO: 81). As to the kind of experiment: SPR, 37 C, mutein captured, CGRP analyte. As for the experimental part:
as §1, §2, §3
(Surface plasmon resonance follows binding to a sensor surface in real time, without labels.)

Test [7] concerns the target T3, rat alpha CGRP (SEQ ID NO: 82) (rat).
T3 construct: also called rat αCGRP; rat α-CGRP
T3 peptide: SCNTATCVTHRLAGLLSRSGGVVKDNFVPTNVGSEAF
As to the kind of experiment: SPR, 37 C, mutein captured, CGRP analyte. As for the experimental part: as §1, §2, §3

Test [8] has as its target T4, rat beta CGRP (SEQ ID NO: 83) (rat, not fully specified).
T4 construct: also called rat βCGRP; rat β-CGRP
T4 peptide: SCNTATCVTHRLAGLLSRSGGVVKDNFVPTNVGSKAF
The test can be described thus: SPR, 37 C, mutein captured, CGRP analyte. As for the experimental part:
as §1, §2, §3

B1: cysteine-free lipocalin mutein SEQ ID NO: 31 (designed binder)
chain: QDSTSDLIPAPPLSKVPLQQNFQDNQFQGKWYVVGWAGNTLLREDKDPIKMQAMIYELKEDKSYNVTWVYFADKKRNYHIETFVPGSQPGEFTLGTIKSYPGETPILVRVVSTNYNQHAMVFFKGVNQNREIFEIVLYGRTKELTNELKENFIRFSKSLGLPENHIVFPVPIDQFIDGSAWSHPQFEK
notes: biotinylated by NHS chemistry for capture in SPR
B1: the Kd (in general, the equilibrium constant for the complex coming apart) was determined as 0.033 nM in test [1] and 0.043 nM in test [2]. Besides, the “cAMP assay IC50, SK-N-MC cells” value in test [3] was found to be 0.19 nM; in test [4], 1.64 nM.

B2: cysteine-free lipocalin mutein SEQ ID NO: 37 (designed binder)
chain: QDSTSDLIPAPPLSKVPLQQNFQDNQFQGKWYVVGWAGNTLLREDKDPIKMQAMIYELKEDKSYNVTWVYFADKKNNYHIETFVPGSQPGEFTLGTIKSYPGETPILVRVVSTNYNQHAMVFFKGVNQNREIFEIVLYGRTKELTNELKENFIRFSKSLGLPENHIVFPVPIDQLIDGSAWSHPQFEK
notes: as for B1
Take B2: the dissociation constant Kd worked out at 0.055 nM in test [1] and 0.023 nM in test [2]. Further, the “cAMP assay IC50, SK-N-MC cells” value in test [3] turned out to be 0.16 nM; in test [4], 0.77 nM.

B3: cysteine-free lipocalin mutein SEQ ID NO: 40 (designed binder)
chain: QDSTSDLIPAPPLSKVPLQQNFQDNQFQGKWYVVGWAGNTLLREDKDPIKMQAMIYELKEDKSYNVTWVYFADKKFNYHIETFVPGSQPGEFTLGTIKSYPGETPILVRVVSTNYNQHAMVFFKGVNQNREIFEIVLYGRTKELTNELKENFIRFSKSLGLPENHIVFPVPIDQDIDGSAWSHPQFEK
notes: as for B1
Consider B3, for which the values for the dissociation constant (Kd) in test [1] and in test [2] were 0.07 nM and 0.023 nM, respectively. Further, the “cAMP assay IC50, SK-N-MC cells” value came out at 0.18 nM in test [3] and 0.42 nM in test [4].

B4: cysteine-free lipocalin mutein SEQ ID NO: 33 (designed binder)
chain: QDSTSDLIPAPPLSKVPLQQNFQDNQFQGKWYVVGWAGNTLLREDKDPIKMQAMIYELKEDKSYNVTWVYFADKKLNYHIETFVPGSQPGEFTLGTIKSYPGETPILVRVVSTNYNQHAMVFFKGVNQNREIFEIVLYGRTKELTNELKENFIRFSKSLGLPENHIVFPVPIDQWIDGSAWSHPQFEK
notes: as for B1
As to B4, the figures for the Kd in test [1] and in test [2] were 0.034 nM and 0.018 nM, respectively. Also, the figures for the “cAMP assay IC50, SK-N-MC cells” value in test [3] and in test [4] were 0.14 nM and 0.24 nM, respectively.

B5: cysteine-free lipocalin mutein SEQ ID NO: 36 (designed binder)
chain: QDSTSDLIPAPPLSKVPLQQNFQDNQFQGKWYVVGWAGNTLLREDKDPIKMQAMIYELKEDKSYNVTWVYFADKKRNYHIETFVPGSQPGEFTLGTIKSYPGETPILVRVVSTNYNQHAMVFFKGVNQNREIFEIVLYGRTKELTNELKENFIRFSKSLGLPENHIVFPVPIDQWIDGSAWSHPQFEK
notes: as for B1
For B5, the figures for the equilibrium dissociation constant (Kd) in test [1] and in test [2] were 0.046 nM and 0.022 nM, respectively. Also, the “cAMP assay IC50, SK-N-MC cells” value turned out to be 0.25 nM in test [3] and 0.81 nM in test [4].

B6: cysteine-free lipocalin mutein SEQ ID NO: 39 (designed binder)
chain: QDSTSDLIPAPPLSKVPLQQNFQDNQFQGKWYVVGWAGNTLLREDKDPIKMQAMIYELKEDKSYNVTWVYFADKKKNYHIETFVPGSQPGEFTLGTIKSYPGETPILVRVVSTNYNQHAMVFFKGVNQNREIFEIVLYGRTKELTNELKENFIRFSKSLGLPENHIVFPVPIDQDIDGSAWSHPQFEK
notes: as for B1
Take B6: the Kd in test [1] came to 0.062 nM; in test [2] it was 0.034 nM. Besides, the “cAMP assay IC50, SK-N-MC cells” value stood at 0.21 nM in test [3] and 1.03 nM in test [4].

B7: cysteine-free lipocalin mutein SEQ ID NO: 38 (designed binder)
chain: QDSTSDLIPAPPLSKVPLQQNFQDNQFQGKWYVVGWAGNTLLREDKDPIKMQAMIYELKEDKSYNVTWVYFADKKRNYHIETFVPGSQPGEFTLGTIKSYPGETPILVRVVSTNYNQHAMVFFKGVNQNREIFEIVLYGRTKELTNELKENFIRFSKSLGLPENHIVFPVPIDQVIDGSAWSHPQFEK
notes: as for B1
Consider B7, for which the results for the dissociation constant Kd in test [1] and in test [2] were 0.059 nM and 0.026 nM, respectively. The “cAMP assay IC50, SK-N-MC cells” value in test [3] came to 0.21 nM; in test [4] it was 3.16 nM.

B8: cysteine-free lipocalin mutein SEQ ID NO: 35 (designed binder)
chain: QDSTSDLIPAPPLSKVPLQQNFQDNQFQGKWYVVGWAGNTLLREDKDPIKMQAMIYELKEDKSYNVTWVYFADKKVNYHIETFVPGSQPGEFTLGTIKSYPGETPILVRVVSTNYNQHAMVFFKGVNQNREIFEIVLYGRTKELTNELKENFIRFSKSLGLPENHIVFPVPIDQYIDGSAWSHPQFEK
notes: as for B1
In the case of B8, the Kd was 0.045 nM in test [1] and 0.017 nM in test [2]. In addition, the “cAMP assay IC50, SK-N-MC cells” value came to 0.15 nM in test [3] and 0.27 nM in test [4].

B9: cysteine-free lipocalin mutein SEQ ID NO: 32 (designed binder)
chain: QDSTSDLIPAPPLSKVPLQQNFQDNQFQGKWYVVGWAGNTLLREDKDPIKMQAMIYELKEDKSYNVTWVYFADKKMNYHIETFVPGSQPGEFTLGTIKSYPGETPILVRVVSTNYNQHAMVFFKGVNQNREIFEIVLYGRTKELTNELKENFIRFSKSLGLPENHIVFPVPIDQYIDGSAWSHPQFEK
notes: as for B1
In the case of B9, the Kd is 0.034 nM in test [1] and 0.021 nM in test [2]. Besides, the figures for the “cAMP assay IC50, SK-N-MC cells” value in test [3] and in test [4] were 0.17 nM and 0.26 nM, respectively.

B10: cysteine-free lipocalin mutein SEQ ID NO: 34 (designed binder)
chain: QDSTSDLIPAPPLSKVPLQQNFQDNQFQGKWYVVGWAGNTLLREDKDPIKMQAMIYELKEDKSYNVTWVYFADKKINYHIETFVPGSQPGEFTLGTIKSYPGETPILVRVVSTNYNQHAMVFFKGVNQNREIFEIVLYGRTKELTNELKENFIRFSKSLGLPENHIVFPVPIDQEIDGSAWSHPQFEK
notes: as for B1
Take B10: the dissociation constant Kd was 0.041 nM in test [1] and 0.025 nM in test [2]. The “cAMP assay IC50, SK-N-MC cells” value in test [3] was 0.12 nM; in test [4] it was 0.29 nM.

B11: cysteine-free lipocalin mutein SEQ ID NO: 29 (designed binder)
chain: QDSTSDLIPAPPLSKVPLQQNFQDNQFQGKWYVVGRAGNDVLREDKDPEKMEATIYELKEDKSYNVTDVGFVQKRLMYVTHTFVPGSQPGEFTLGNIESYPGVTSALVRVVSTDYNQHAMVFVKLVKQNRELFEITLYGRTKELTSELKENFIRFSKSLGLPENHIVFPVPIDQIDGSAWSHPQFEK
notes: as for B1
On to B11, for which the dissociation constant (Kd) in test [1] stood at 0.065 nM; in test [2], 0.05 nM. The “cAMP assay IC50, SK-N-MC cells” value was 0.14 nM in test [3] and 0.91 nM in test [4].

B12: cysteine-free lipocalin mutein SEQ ID NO: 30 (designed binder)
chain: QDSTSDLIPAPPLSKVPLQQNFQDNQFQGKWYVVGRAGNDVLREDKDPEKMEATIYELKEDKSYNVTDVGFVQKRYMYVTHTFVPGSQPGEFTLGNIESYPGVTSALVRVVSTDYNQHAMVFVKLVKQNRELFEITLYGRTKELTSELKENFIRFSKSLGLPENHIVFPVPIDQIDGSAWSHPQFEK
notes: as for B1
As to B12, the dissociation constant (Kd) in test [1] came to 0.109 nM; in test [2], 0.075 nM. Further, the “cAMP assay IC50, SK-N-MC cells” value in test [3] turned out to be 0.22 nM; in test [4], 1.32 nM.

B13: lipocalin mutein SEQ ID NO: 22 (designed binder)
chain: QDSTSDLIPAPPLSKVPLQQNFQDNQFHGKWYVVGRAGNDALREDKDPEKMEATIYELKEDKSYNVTDVGLVQKKCMYVIHTFVPGGQPGEFTLGNIKSYPGVTSALVRVVSTNYNQHAMVFVKLVKQNRELFEITLYGRTKELTSELKENFIRFSKSLGLPENHIVFPVPIDQCIDGSAWSHPQFEK
notes: as for B1
Regarding B13, the Kd in test [5] stood at 0.009 nM; in test [6], 0.003 nM; in test [7], 0.033 nM; in test [8], 0.013 nM. The koff (as a rule, a measure of how fast the partners let go of each other) worked out at 1.56e-05 s⁻¹ in test [5], 9.32e-06 s⁻¹ in test [6], 3.05e-05 s⁻¹ in test [7] and 2.02e-05 s⁻¹ in test [8]. The association rate constant (kon) – broadly, a measure of how fast the partners come together – in test [5] was 1.76e+06 M⁻¹ s⁻¹; in test [6] it was 2.7e+06 M⁻¹ s⁻¹; in test [7], 931000 M⁻¹ s⁻¹; in test [8], 1.6e+06 M⁻¹ s⁻¹.
